{"source": "paper PMC10240976", "binders": {"B1": {"name": "GABARAP (purified, for ITC) F62W (protein)", "chain": "MKFVYKEEHPFEKRRSEGEKIRKKYPDRVPVIVEKAPKARIGDLDKKKYLVPSDLTVGQFYWLIRKRIHLRAEDALFFFVNNVIPPTSATMGQLYQEHHEEDFFLYIAYSDESVYG"}}, "test_in_all_cases": "ITC", "key": {"[1]": {"target": "T1, LIR[Sp] peptide", "T1 chain": "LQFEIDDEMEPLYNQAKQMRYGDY", "settings": "chain shown with the change"}, "[2]": {"target": "LC3C (purified, for ITC)"}, "[3]": {"target": "LC3B (purified, for ITC)"}, "[4]": {"target": "GABARAPL2 (purified, for ITC) (human)", "sequence (P60520 1-116)": "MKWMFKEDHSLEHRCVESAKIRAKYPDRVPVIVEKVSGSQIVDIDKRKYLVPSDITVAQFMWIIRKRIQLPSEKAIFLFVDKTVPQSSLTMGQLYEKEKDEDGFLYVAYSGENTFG"}, "[5]": {"target": "GABARAPL1 (purified, for ITC)"}, "[6]": {"target": "GABARAP (purified, for ITC) (human)"}}, "data": [{"binder": "B1", "values": [{"measurement": "Kd", "setting": "[1]", "result": 0.629, "unit": "µM"}]}, {"binder": "DGTLIIDLPDSY", "note": "[LIR(TP[T]) peptide]", "values": [{"measurement": "Kd", "setting": "[2]", "result": 26.9, "unit": "µM"}, {"measurement": "Kd", "setting": "[3]", "result": "> 132", "unit": "µM"}, {"measurement": "Kd", "setting": "[4]", "result": "> 132", "unit": "µM"}, {"measurement": "Kd", "setting": "[5]", "result": "> 132", "unit": "µM"}, {"measurement": "Kd", "setting": "[6]", "result": "> 132", "unit": "µM"}]}]}
